Data as given in patent US20140309175A1.

Molecular target: C1-Esterase (UniProt P09871)
Assay: cell-based or functional assay

Sequence of C1-Esterase (P09871 16-688 limits assumed): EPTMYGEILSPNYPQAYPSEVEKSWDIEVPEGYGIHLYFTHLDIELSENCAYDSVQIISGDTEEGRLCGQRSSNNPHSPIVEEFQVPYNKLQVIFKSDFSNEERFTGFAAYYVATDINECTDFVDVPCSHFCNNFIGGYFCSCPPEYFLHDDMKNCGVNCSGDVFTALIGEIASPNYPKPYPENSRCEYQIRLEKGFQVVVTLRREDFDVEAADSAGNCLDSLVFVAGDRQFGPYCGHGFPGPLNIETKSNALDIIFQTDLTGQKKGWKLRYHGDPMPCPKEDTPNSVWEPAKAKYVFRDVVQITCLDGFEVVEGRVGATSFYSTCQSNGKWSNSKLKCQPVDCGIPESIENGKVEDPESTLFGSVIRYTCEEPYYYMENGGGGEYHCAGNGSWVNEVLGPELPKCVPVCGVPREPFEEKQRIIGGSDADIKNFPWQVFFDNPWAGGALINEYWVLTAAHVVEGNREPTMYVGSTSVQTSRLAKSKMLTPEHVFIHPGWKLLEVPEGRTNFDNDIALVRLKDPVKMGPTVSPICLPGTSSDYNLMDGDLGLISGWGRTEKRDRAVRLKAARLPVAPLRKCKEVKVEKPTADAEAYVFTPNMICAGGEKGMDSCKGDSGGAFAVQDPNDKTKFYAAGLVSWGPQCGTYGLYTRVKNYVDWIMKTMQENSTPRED

Row | Substance | in vitro C1 inhibitory activity | in vitro C1 inhibitory activity, percent of native C1 inhibitor
1 | Mal-U-PEG-C1 INH (C1 inhibitor PEGylated with branched 40k mPEG-maleimide) (from UniProt P05155 23-500) | 3.3 U/mg | 47%
2 | Mal-PEG-C1 INH (C1 esterase inhibitor PEGylated with 40 kDa maleimide mPEG) (from UniProt P05155 23-500) | 6.1 U/mg | 86%
